Molecular target: megalin (low-density lipoprotein receptor-related protein 2) (mouse (endogenous in hippocampal neurons)) (UniProt A2ARV4)
Sequence (A2ARV4 26-4660): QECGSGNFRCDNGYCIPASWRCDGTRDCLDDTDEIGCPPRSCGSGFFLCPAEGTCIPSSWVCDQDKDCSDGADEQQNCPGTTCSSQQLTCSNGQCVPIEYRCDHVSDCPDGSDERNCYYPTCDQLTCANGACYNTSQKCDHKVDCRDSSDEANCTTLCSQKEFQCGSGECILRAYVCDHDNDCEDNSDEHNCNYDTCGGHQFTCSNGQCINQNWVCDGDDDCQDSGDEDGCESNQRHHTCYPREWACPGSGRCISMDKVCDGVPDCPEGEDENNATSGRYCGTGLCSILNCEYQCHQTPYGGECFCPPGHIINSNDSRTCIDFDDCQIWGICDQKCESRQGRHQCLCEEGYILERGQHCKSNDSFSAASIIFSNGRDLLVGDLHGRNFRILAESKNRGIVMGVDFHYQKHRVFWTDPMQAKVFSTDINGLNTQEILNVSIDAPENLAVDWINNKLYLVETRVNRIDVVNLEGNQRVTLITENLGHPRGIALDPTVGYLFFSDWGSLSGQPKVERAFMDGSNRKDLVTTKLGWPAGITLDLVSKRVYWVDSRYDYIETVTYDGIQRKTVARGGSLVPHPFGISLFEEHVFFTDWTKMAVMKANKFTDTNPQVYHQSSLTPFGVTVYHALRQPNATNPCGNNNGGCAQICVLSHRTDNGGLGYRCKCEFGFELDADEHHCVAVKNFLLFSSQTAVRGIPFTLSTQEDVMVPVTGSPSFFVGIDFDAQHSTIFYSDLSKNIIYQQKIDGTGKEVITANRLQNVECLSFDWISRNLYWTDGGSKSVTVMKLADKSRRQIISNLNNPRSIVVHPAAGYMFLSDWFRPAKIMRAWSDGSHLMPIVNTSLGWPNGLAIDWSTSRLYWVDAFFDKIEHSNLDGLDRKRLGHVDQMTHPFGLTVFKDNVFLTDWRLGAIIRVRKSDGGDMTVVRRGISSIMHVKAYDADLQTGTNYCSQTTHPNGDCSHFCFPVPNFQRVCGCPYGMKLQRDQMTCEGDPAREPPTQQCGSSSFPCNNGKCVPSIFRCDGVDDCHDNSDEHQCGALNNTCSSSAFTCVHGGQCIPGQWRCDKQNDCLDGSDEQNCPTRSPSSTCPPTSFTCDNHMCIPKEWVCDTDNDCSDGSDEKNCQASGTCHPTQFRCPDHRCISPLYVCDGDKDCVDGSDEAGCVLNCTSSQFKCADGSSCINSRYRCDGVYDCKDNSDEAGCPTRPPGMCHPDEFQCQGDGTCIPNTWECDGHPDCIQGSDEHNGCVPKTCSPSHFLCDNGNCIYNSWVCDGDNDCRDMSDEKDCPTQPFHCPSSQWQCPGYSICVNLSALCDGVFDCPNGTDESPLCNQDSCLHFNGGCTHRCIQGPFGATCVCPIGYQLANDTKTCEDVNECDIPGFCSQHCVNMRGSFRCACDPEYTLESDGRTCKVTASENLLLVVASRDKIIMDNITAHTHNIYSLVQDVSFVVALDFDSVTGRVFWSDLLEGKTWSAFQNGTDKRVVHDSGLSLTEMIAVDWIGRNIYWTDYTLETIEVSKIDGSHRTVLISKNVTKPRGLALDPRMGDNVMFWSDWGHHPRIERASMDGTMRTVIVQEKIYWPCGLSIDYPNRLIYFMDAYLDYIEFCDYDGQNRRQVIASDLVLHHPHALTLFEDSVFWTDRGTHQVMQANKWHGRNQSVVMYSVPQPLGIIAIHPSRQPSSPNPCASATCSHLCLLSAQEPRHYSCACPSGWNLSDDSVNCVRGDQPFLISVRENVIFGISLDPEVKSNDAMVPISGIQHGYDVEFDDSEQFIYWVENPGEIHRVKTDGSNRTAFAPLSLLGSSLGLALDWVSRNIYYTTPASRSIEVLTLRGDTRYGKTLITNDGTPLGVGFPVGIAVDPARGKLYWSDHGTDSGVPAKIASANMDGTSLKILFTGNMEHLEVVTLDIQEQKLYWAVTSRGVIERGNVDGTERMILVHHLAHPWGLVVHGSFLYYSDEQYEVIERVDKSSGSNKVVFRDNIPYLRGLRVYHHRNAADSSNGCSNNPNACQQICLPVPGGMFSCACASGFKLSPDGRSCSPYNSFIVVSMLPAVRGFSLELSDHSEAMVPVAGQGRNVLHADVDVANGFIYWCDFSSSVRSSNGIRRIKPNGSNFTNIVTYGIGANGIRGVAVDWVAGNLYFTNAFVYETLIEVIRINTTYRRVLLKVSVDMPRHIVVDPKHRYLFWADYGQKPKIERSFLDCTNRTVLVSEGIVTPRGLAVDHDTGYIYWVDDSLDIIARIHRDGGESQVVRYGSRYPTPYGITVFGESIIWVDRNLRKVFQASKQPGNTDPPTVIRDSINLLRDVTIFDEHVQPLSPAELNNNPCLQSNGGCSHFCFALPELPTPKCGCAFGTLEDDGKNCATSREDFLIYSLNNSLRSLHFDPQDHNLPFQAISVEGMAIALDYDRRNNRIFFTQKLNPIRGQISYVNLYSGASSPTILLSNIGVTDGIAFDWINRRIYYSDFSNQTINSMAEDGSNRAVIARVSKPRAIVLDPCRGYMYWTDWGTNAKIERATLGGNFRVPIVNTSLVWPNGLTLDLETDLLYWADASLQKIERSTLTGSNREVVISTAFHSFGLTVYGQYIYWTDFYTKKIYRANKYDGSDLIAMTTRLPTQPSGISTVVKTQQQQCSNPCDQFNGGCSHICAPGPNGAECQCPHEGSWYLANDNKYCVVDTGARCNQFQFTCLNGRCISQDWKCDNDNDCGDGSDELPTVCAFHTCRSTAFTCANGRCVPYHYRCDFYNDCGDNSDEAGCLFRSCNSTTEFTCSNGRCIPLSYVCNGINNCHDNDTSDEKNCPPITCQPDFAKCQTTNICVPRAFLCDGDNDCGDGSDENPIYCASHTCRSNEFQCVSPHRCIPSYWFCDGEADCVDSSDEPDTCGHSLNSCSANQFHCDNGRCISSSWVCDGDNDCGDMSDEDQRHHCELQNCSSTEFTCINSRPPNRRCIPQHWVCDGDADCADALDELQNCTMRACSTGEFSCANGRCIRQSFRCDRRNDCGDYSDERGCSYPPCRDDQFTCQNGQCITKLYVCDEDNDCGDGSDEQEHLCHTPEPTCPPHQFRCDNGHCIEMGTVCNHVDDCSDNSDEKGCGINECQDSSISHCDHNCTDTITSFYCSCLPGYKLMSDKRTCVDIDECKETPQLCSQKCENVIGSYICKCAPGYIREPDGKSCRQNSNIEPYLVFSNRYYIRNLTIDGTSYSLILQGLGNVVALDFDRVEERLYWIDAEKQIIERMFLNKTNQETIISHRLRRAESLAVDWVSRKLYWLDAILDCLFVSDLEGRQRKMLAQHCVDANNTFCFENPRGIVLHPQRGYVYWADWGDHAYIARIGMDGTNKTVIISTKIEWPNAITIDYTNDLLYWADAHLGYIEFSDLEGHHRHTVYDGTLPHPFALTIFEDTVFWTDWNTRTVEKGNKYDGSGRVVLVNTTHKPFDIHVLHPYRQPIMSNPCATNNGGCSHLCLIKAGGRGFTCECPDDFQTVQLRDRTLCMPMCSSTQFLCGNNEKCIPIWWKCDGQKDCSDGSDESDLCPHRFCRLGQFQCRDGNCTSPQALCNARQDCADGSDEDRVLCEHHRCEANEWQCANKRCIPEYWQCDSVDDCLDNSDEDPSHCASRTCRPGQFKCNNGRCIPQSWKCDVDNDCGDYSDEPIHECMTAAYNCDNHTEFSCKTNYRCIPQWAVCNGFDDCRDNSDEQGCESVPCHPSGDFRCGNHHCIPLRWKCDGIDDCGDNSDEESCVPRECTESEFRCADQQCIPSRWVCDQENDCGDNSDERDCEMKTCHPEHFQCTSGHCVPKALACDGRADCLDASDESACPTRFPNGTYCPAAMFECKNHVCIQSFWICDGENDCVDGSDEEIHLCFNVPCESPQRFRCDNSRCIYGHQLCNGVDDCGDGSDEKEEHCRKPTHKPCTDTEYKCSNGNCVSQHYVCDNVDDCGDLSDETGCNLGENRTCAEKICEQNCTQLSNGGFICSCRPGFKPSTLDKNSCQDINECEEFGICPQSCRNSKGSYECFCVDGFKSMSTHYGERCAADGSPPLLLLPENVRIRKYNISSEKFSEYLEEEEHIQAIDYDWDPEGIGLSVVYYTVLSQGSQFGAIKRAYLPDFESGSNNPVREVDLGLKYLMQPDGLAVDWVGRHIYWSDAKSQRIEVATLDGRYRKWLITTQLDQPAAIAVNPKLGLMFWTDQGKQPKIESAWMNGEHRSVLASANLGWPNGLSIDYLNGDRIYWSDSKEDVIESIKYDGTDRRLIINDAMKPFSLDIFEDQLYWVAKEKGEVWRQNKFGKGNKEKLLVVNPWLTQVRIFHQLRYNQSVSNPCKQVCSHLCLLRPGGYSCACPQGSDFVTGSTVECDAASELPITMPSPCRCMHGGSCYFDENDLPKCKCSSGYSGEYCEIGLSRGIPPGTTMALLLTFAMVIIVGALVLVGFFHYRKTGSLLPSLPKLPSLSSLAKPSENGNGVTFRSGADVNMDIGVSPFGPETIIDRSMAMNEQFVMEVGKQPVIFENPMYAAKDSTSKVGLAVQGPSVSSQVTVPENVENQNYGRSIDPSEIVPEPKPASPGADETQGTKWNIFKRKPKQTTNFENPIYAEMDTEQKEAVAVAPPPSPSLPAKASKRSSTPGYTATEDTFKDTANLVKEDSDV

Substance: recombinant mouse transthyretin (from UniProt P07309 21-147) (ligand)
- LRP2-ICD level (western blot, anti-GFP) in TTR KO neurons transfected with short-megalin-GFP and stimulated with recombinant mouse TTR (55 µg/ml, 4 h): 50 % increase
- LRP2-ICD level (western blot, anti-megalin) in non-transfected WT hippocampal neurons (15 DIV) after 5 min with recombinant mouse TTR (55 µg/ml): 5 fold

Source: paper PMC7667529
